# From paper PMC7035956 (Nature chemical biology, 2019)
# T1: FANCL URD-RING fragment (FANCL^UR) (human, UniProt Q9NW38 109-375)
# T1 sequence: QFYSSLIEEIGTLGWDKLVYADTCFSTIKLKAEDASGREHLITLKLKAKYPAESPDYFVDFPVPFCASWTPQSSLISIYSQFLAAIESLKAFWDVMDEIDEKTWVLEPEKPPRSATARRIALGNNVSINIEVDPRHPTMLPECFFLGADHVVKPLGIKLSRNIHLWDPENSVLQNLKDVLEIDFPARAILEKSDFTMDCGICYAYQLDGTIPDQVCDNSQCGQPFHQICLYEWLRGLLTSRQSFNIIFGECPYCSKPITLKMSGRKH
# B1: Ube2T (enzyme)
# chain: MQRASRLKRELHMLATEPPPGITCWQDKDQMDDLRAQILGGANTPYEKGVFKLEVIIPERYPFEPPQIRFLTPIYHPNIDSAGRICLDVLKLPPKGAWRPSLNIATVLTSIQLLMSEPNPDDPLMADISSEFKYNKPAFLKNARQWTEKHARQKQKADEEEMLDNLPEAGDSRVHNSTQKRKASQLVGIEKKFHPDV
# B2: Ube2T D32A+D33A+L92A (enzyme)
# chain: MQRASRLKRELHMLATEPPPGITCWQDKDQMAALRAQILGGANTPYEKGVFKLEVIIPERYPFEPPQIRFLTPIYHPNIDSAGRICLDVLKAPPKGAWRPSLNIATVLTSIQLLMSEPNPDDPLMADISSEFKYNKPAFLKNARQWTEKHARQKQKADEEEMLDNLPEAGDSRVHNSTQKRKASQLVGIEKKFHPDV
# B3: Ube2T T23R+W25Q (enzyme)
# chain: MQRASRLKRELHMLATEPPPGIRCQQDKDQMDDLRAQILGGANTPYEKGVFKLEVIIPERYPFEPPQIRFLTPIYHPNIDSAGRICLDVLKLPPKGAWRPSLNIATVLTSIQLLMSEPNPDDPLMADISSEFKYNKPAFLKNARQWTEKHARQKQKADEEEMLDNLPEAGDSRVHNSTQKRKASQLVGIEKKFHPDV
# How the values were obtained:
# [1] = target: Xenopus laevis FANCD2 (xFANCD2) (Xenopus laevis); assay: MST
# [2] = target: T1, FANCL URD-RING fragment (FANCL^UR); assay: ITC
# Ube2T = target: B1; assay: ITC
# Ube2T D32A+D33A+L92A = target: B2; assay: ITC
# Ube2T T23R+W25Q = target: B3; assay: ITC
Molecule,Kd [2] [nM],binding result [2],other results
Ube2T^1-152 (from UniProt Q9NPD8 1-152) (domain or fragment),,,Kd [1]: 320000 nM
Ube2Tv3 in the Ube2T^1-152 background (E54R+P93G+P94G) (from UniProt Q9NPD8 1-152) (domain or fragment),,,Kd [1]: 238000 nM
B1,~119,,
Ube2T K95A (enzyme) MQRASRLKRELHMLATEPPPGITCWQDKDQMDDLRAQILGGANTPYEKGVFKLEVIIPERYPFEPPQIRFLTPIYHPNIDSAGRICLDVLKLPPAGAWRPSLNIATVLTSIQLLMSEPNPDDPLMADISSEFKYNKPAFLKNARQWTEKHARQKQKADEEEMLDNLPEAGDSRVHNSTQKRKASQLVGIEKKFHPDV,,binds,
Ube2T R84S (enzyme) MQRASRLKRELHMLATEPPPGITCWQDKDQMDDLRAQILGGANTPYEKGVFKLEVIIPERYPFEPPQIRFLTPIYHPNIDSAGSICLDVLKLPPKGAWRPSLNIATVLTSIQLLMSEPNPDDPLMADISSEFKYNKPAFLKNARQWTEKHARQKQKADEEEMLDNLPEAGDSRVHNSTQKRKASQLVGIEKKFHPDV,,binds,
FANCL RING (FANCL^R) (domain or fragment) EIDFPARAILEKSDFTMDCGICYAYQLDGTIPDQVCDNSQCGQPFHQICLYEWLRGLLTSRQSFNIIFGECPYCSKPITLKMSGRKH,,,Kd (Ube2T): ~253 nM; Kd (Ube2T D32A+D33A+L92A): ~253 nM; Kd (Ube2T T23R+W25Q): ~253 nM
Ube2T R84S+K91A+K95A (enzyme) MQRASRLKRELHMLATEPPPGITCWQDKDQMDDLRAQILGGANTPYEKGVFKLEVIIPERYPFEPPQIRFLTPIYHPNIDSAGSICLDVLALPPAGAWRPSLNIATVLTSIQLLMSEPNPDDPLMADISSEFKYNKPAFLKNARQWTEKHARQKQKADEEEMLDNLPEAGDSRVHNSTQKRKASQLVGIEKKFHPDV,,binds,
B2,~119,,
B3,200,,
Ube2T K91A (enzyme) MQRASRLKRELHMLATEPPPGITCWQDKDQMDDLRAQILGGANTPYEKGVFKLEVIIPERYPFEPPQIRFLTPIYHPNIDSAGRICLDVLALPPKGAWRPSLNIATVLTSIQLLMSEPNPDDPLMADISSEFKYNKPAFLKNARQWTEKHARQKQKADEEEMLDNLPEAGDSRVHNSTQKRKASQLVGIEKKFHPDV,,binds,
